Conditions: ubiquitination at K571

With ELL2: K571R the degradation_or_half_life was “no change, half-life less than 6 h”.

Reference: article PMC6537586
